According to CN116761824A (SHANGHAI YAOMING HELIAN BIOTECHNOLOGY CO LTD, dated 2023):

Target: T1, 人Trop2 (human, UniProt P09758 27-323)
T1 construct: whole, on cells; also called 肿瘤相关钙信号转导器2; TACSTD2
T1 sequence (looked up): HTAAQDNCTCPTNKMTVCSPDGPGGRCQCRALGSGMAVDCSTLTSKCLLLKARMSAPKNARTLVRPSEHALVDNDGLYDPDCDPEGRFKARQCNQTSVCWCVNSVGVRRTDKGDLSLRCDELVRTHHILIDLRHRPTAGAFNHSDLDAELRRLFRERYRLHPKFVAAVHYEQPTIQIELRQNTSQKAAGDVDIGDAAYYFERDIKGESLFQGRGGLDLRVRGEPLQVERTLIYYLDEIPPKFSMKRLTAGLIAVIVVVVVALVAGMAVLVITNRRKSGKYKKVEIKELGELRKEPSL
Assay: FACS on tumour cells (MDA-MB-468, HCC827, BxPC-3), Alexa647 goat anti-human IgG Fc detection

B1: 抗-Trop2抗体886-36 (antibody, V domains shown)
VH: QVQLQQSGSELKKPGASVKVSCKASGYTFTNYGMNWVKQAPGQGLKWMGWINTYTGEPTYTDDFKGRFAFSLDTSVSTAYLQISSLKADDTAVYFCARGGFGSSYWYFDVWGQGSLVTVSS
VL: DIQLTQSPSSLSASVGDRVSITCKASQDVSIAVAWYQQKPGKAPKLLIYSASYRYTGVPDRFSGSGSGTDFTLTISSLQPEDFAVYYCQQHYITPLTFGAGTKVEIKR
notes: also called WBP886-36
binding result: binds

B2: 886-36-MMAE (antibody, V domains shown)
VH: B1 VH
VL: B1 VL
modifications: MC-vc-PAB-MMAE on cysteines freed by partial TCEP reduction of interchain disulfides; mostly in the Fab domain; mainly DAR4 (82.3%)
binding result: binds
